Data: PMC10062202

Substrate: CC(=O)O
Experiment: purified protein
Conditions: 5 mM ATP, 2.5 mM CoA, 6 mM MgCl2, pH 7.5, 37 °C, His-tagged

B1: atACS (Arabidopsis acetyl-CoA synthetase) (Arabidopsis thaliana) (protein)
chain: ASEENDLVFPSKEFSGQALVSSPQQYMEMHKRSMDDPAAFWSDIASEFYWKQKWGDQVFSENLDVRKGPISIEWFKGGITNICYNCLDKNVEAGLGDKTAIHWEGNELGVDASLTYSELLQRVCQLANYLKDNGVKKGDAVVIYLPMLMELPIAMLACARIGAVHSVVFAGFSADSLAQRIVDCKPNVILTCNAVKRGPKTINLKAIVDAALDQSSKDGVSVGICLTYDNSLATTRENTKWQNGRDVWWQDVISQYPTSCEVEWVDAEDPLFLLYTSGSTGKPKGVLHTTGGYMIYTATTFKYAFDYKSTDVYWCTADCGWITGHSYVTYGPMLNGATVVVFEGAPNYPDPGRCWDIVDKYKVSIFYTAPTLVRSLMRDDDKFVTRHSRKSLRVLGSVGEPINPSAWRWFFNVVGDSRCPISDTWWQTETGGFMITPLPGAWPQKPGSATFPFFGVQPVIVDEKGNEIEGECSGYLCVKGSWPGAFRTLFGDHERYETTYFKPFAGYYFSGDGCSRDKDGYYWLTGRVDDVINVSGHRIGTAEVESALVLHPQCAEAAVVGIEHEVKGQGIYAFVTLLEGVPYSEELRKSLVLMVRNQIGAFAAPDRIHWAPGLPKTRSGKIMRRILRKIASRQLEELGDTSTLADPSVVDQLIALADV
Question: With B1 as the protein, how does the Km read?
Answer: 180 ± 30 µM

Question: And the kcat?
Answer: 15.05 ± 0.65 s⁻¹
